What was measured:
TGF-β-signalling = test: TGF-β-induced SBE-promoter activity in mouse MEF cells; assay type: cell-based
Protocol: The expression plasmids Flag-WT-CYLD, HA-WT-CYLD, Flag-H/N-CYLD, HA-C/S-CYLD, Flag-WT-Smad3, C/A-TβRI, and the reporter plasmids SBE-Luc, PAI-1-Luc, and NF-κB-Luc were previously described. Flag-WT-Akt1, pRK5-HA-Ub WT, pRK5-HA-Ub K63, and pRK5-HA-Ub K48 were from Addgene, and K to R mutants of Akt were generated with WT-Akt1 using QuickChange XL Site-Directed Mutagenesis kit (Stratagene). All transient transfections were carried out using TransIT-LT1 reagent (Minis) or Lipofectamine (Invitrogen) according to manufacturers' instructions.

Akt = Akt ubiquitination in cells (immunoprecipitation, immunoblotting); assay type: cell-based, human; conditions: epithelial cells
Protocol: Western blot, immunoprecipitation and ubiquitination experiments were performed as follows. Western blots were performed using whole-cell extracts, separated on 8 or 10% SDS-PAGE gels, and transferred to polyvinylidine di& uoride membranes. The membrane was blocked with a solution of PBS containing 0.1% Tween 20 (PBS-T) and 5% BSA. The membrane was then incubated in a 1:2,000 dilution of a primary antibody in 5% BSA-PBS-T. After three washes in PBS-T, the membrane was incubated with 1:5,000 dilution of the corresponding secondary antibody in 3% non-fact skim milk-PBS-T. Respective proteins were visualized by using enhanced chemiluminescence detection reagents, according to the manufacturer's instructions. To conduct immunoprecipitation analysis, cell lysates were incubated with 1 μg of primary antibodies overnight, at 4° C., followed by 2-h incubation with protein A/G-agarose beads (Invitrogen). Immunoprecipitates were then suspended in a sample buffer, separated on 8% SDS-PAGE, transferred to polyvinylidine difluoride membrane, and detected by immunoblot analysis, as described above. […]

PAI-1 = test: TGF-β-induced PAI-1 expression in Akt1−/− cells; assay type: cell-based
Excerpt: Thus, we determined the effect of knockdown of both Akt1 and 2 on Smad3 protein level in these cells. […] We further confirmed whether activation of Akt does induce upregulation of fibrotic response gene expression via Smad3. Activation of Akt by expressing a constitutively active C/A-Akt indeed induced expression of PAI-1 and CTGF in Smad3+/+ cells, but not in Smad3−/− cells. […] PI3 K is known as the one of the major signalling molecules upstream of Akt. We thus determined whether PI3K, like Akt, is also involved in mediating CYLD-dependent Smad3 degradation by evaluating the effect of PI3K and Akt inhibitors on Smad3 protein expression. […] Further studies are needed to determine whether CYLD-Akt-mediated regulation of Smad3 is indeed independent of PI3K by using more specific approaches.

[1] = system: TGF-β-induced fibrotic response; test: TGF-β-induced fibrotic response in TRAF6-depleted cells; assay type: cell-based
Excerpt: Because K14 lysine in the pleckstrin homology domain of Akt is critical for mediating its function, we next determined whether mutation of K14 lysine to arginine (R) reduces polyubiquitination of Akt. […] We further determined whether K14 residue in Akt is indeed functionally critical for mediating CYLD-induced inhibition of TGF-β-signalling. […] TNF receptor-associated factor 6 (TRAF6) was previously shown to function as an E3 ligase for Akt-K63 polyubiquitination and CYLD deubiquitinates TRAF6. Thus, we next explored the possibility that CYLD may inhibit Akt-mediated fibrotic responses via deubiquitinating TRAF6.
It is possible that CYLD may inhibit Akt-mediated fibrotic response by actually deubiquitinating TRAF6. Thus, we evaluated the effect of siCYLD on TGF-β-induced fibrotic response in TRAF6-depleted cells using siTRAF6. […] Here we have provided strong evidence that CYLD inhibits S. pneumoniae-induced Smad3-dependent fibrosis via inhibiting Akt, thereby linking CYLD to Smad3 via Akt. It is still unclear whether or not direct activation of Akt induces a fibrotic response via Smad3. Indeed, direct activation of Akt by expressing a constitutively active form of C/A-Akt induces expression of the fibrotic response gene PAI-1 and CTGF in Smad3+/+ cells, but not in Smad3−/− cells. […]

CYLD = CYLD knockdown efficiency of siCYLD (immunoblotting); assay type: cell-based, human; conditions: a number of cell types including NHBE cells
Protocol: RNA-mediated interference for downregulating CYLD expression was carried out using pSuper-CYLD and the sequence for the siCYLD is 5′-[…]-3′ (SEQ ID NO:13). Human and mouse siRNAs for Akt and CHIP were from Dharmacon, and knockdown of Akts and CHIP, using siAkt and siCHIP, was performed with Lipofectamine 2000 (Invitrogen). ON-TARGETplus SMARTpool of siRNAs targeting human Akt1, human CHIP, mouse Akt1, and mouse Akt2 consists of four siRNAs and sequences for the siRNAs are as follows: Human siAkt1 (5′-[…]-3′ (SEQ ID NO:14), 5′-[…]-3′ (SEQ ID NO:15), 5′[…]-3′ (SEQ ID NO:16), 5′-[…]-3′ (SEQ ID NO:17)); human CHIP (5′-[…]-3′ (SEQ ID NO:18), 5′-[…]-3′ (SEQ ID NO:19), 5′-[…]-3′ (SEQ ID NO:20), 5′-[…]-3′ (SEQ ID NO:21)); mouse Akt1 (5′-[…]-3′ (SEQ ID NO:22), 5′-[…]-3′ (SEQ ID NO:23), 5′-[…]-3′ (SEQ ID NO:24), 5′-[…]-3′ (SEQ ID NO:25)); mouse Akt2 (5′-[…]-3′ (SEQ ID NO:26), 5′-[…]-3′ (SEQ ID NO:27), 5′-[…]-3′ (SEQ ID NO:28), 5′-[…]-3′ (SEQ ID NO:29)).
Western blot, immunoprecipitation and ubiquitination experiments were performed as follows. Western blots were performed using whole-cell extracts, separated on 8 or 10% SDS-PAGE gels, and transferred to polyvinylidine di& uoride membranes. […] Immunoprecipitates were then suspended in a sample buffer, separated on 8% SDS-PAGE, transferred to polyvinylidine difluoride membrane, and detected by immunoblot analysis, as described above. […]

B1: siCYLD: RNA-mediated interference for downregulating CYLD expression using pSuper-CYLD, SEQ ID NO:13 (nucleic acid)
chain: GATCCCCGAGCTACTGAGGACAGAAATTCAAGAGATTTCTGTCCTCAGTAGCTCTTTTTGGAAA
modifications: expressed from pSuper vector
SBE-Luc activity in the absence of Smad3 (TGF-β-signalling; Smad3-deficient MEF cells): did not enhance
SBE-Luc activity in cells reconstituted with WT-Smad3 (TGF-β-signalling; Smad3-deficient MEF cells + WT-Smad3): markedly enhanced
S. pneumoniae-induced Akt ubiquitination (Akt): markedly enhanced
TGF-β-induced PAI-1 expression (PAI-1): no longer enhanced
TGF-β-induced fibrotic response [1]: still enhanced
endogenous CYLD protein expression (CYLD): efficiently reduced
